The source of these data is paper PMC6872814, “Functional interactions between nitrite reductase and nitric oxide reductase from Paracoccus denitrificans” (Scientific Reports, 2019).

Assay [1] concerns the target cytochrome c-dependent nitric oxide reductase (cNOR) from Paracoccus denitrificans, NorB and NorC, unlabelled (Paracoccus denitrificans) (UniProt Q51662).
Assay [2] shares this target. The source holds these as a separate data set.
For assay [3] the target is unchanged. This is another data set of the same source.
Assay [4] has the same target. The source holds these as a separate data set.

Sequence of horse heart cytochrome c (P00004 whole entry): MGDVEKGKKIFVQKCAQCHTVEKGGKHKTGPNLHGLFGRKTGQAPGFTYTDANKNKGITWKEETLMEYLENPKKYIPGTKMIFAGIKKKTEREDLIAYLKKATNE
Sequence of cytochrome c-dependent nitric oxide reductase (cNOR) from Paracoccus denitrificans, NorB and NorC, unlabelled (Paracoccus denitrificans) (Q51662 whole entry, looked up): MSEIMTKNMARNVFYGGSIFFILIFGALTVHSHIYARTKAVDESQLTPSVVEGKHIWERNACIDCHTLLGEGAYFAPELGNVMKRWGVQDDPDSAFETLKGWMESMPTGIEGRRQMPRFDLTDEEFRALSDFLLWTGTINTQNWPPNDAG
Sequence of cytochrome cd1 nitrite reductase (cd1NiR) from Paracoccus pantotrophus, labelled with Abberior STAR 635 (P72181 30-596): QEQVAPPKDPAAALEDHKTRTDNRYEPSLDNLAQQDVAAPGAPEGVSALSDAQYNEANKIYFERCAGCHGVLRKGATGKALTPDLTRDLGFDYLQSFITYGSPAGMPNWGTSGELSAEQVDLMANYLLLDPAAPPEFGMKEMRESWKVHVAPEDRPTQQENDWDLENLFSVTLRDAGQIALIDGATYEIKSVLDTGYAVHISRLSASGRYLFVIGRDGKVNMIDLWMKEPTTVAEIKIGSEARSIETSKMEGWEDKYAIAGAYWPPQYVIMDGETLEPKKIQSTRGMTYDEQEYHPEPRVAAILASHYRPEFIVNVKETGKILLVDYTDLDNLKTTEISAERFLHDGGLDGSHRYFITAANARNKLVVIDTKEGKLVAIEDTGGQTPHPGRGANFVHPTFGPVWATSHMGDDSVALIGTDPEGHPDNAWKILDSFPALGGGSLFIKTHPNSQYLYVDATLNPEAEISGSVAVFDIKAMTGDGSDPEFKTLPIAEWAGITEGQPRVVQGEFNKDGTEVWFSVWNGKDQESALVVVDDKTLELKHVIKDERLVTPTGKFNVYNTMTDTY

“cytochrome cd1 nitrite reductase (cd1NiR) from Paracoccus pantotrophus, labelled with Abberior STAR 635 (from UniProt P72181 30-596) (enzyme)”: the inhibition of the maximum NO-reduction activity (kmax at ~5 µM NO) of 40 nM detergent-solubilized cNOR, cd1NiR 0-200 nM; the inhibition is released at higher cd1NiR in assay [1] came out at 50%. Further, the relative kmax (kcat of the fit) of NO reduction by liposome-reconstituted cNOR in the presence of ~30 nM cd1NiR, cyt. c titration; control without cd1NiR = 100% in assay [2] was found to be 46%.

As for “horse heart cytochrome c (from UniProt P00004 1-105) (natural protein)”, in assay [3], the Km for cyt. c of NO reduction by cNOR in detergent (0.05% DDM) worked out at 0.8 µM and the Km for cyt. c of NO reduction by liposome-reconstituted cNOR worked out at 0.8 µM. Besides, in assay [4], the Km for cyt. c of NO reduction by liposome-reconstituted cNOR in the presence of ~30 nM cd1NiR (unchanged against the control) was 0.15 µM and the Km for cyt. c of NO reduction by liposome-reconstituted cNOR, side-by-side control without cd1NiR is 0.2 µM.
